B1: Adenylate kinase, P07170 (parent)
chain: MSSSESIRMVLIGPPGAGKGTQAPNLQERFHAAHLATGDMLRSQIAKGTQLGLEAKKIMDQGGLVSDDIMVNMIKDELTNNPACKNGFILDGFPRTIPQAEKLDQMLKEQGTPLEKAIELKVDDELLVARITGRLIHPASGRSYHKIFNPPKEDMKDDVTGEALVQRSDDNADALKKRLAAYHAQTEPIVDFYKKTGIWAGVDASQPPATVWADILNKLGKD

This data set covers variants of B1. To be noted: Saccharomyces cerevisiae (strain ATCC 204508 / S288c), Thermal, Fluorescence, reversible: yes, structure 2AKY, whole UniProt chain shown; for ddG of mutation (higher = less stable) / unfolding free energy: 25 °C.

With I215F, for the setting “pH 7.5, MOPS-NaOH 30 mM”, the “ddG of mutation (higher = less stable)” value came to 1.91 kcal/mol; the unfolding free energy stood at 1.91 kcal/mol; the Tm stood at 40 °C; the “change of melting temperature, mutant - wild type (higher = more stable)” value (shortened to “change of melting temperature, mutant”) is -7.7 °C. Where the note is “pH 7.5, MOPS-NaOH 30 mM”, the “unfolding enthalpy (van 't Hoff)” value is 59.8 kcal/mol.
T79H: where the note is “pH 5, Acetic acid-NaOH 30 mM”, the unfolding free energy stood at 2.87 kcal/mol, the Tm came out at 46.8 °C and the “unfolding enthalpy (van 't Hoff)” value came to 68.1 kcal/mol. For the same variant, where the note is “pH 7.5, MOPS-NaOH 30 mM”, the “ddG of mutation (higher = less stable)” value is 2.15 kcal/mol; the unfolding free energy was determined as 1.67 kcal/mol; the Tm stood at 46.6 °C; the “change of melting temperature, mutant” value was -1.1 °C. Also, the “unfolding enthalpy (van 't Hoff)” value (pH 7.5, MOPS-NaOH 30 mM) turned out to be 50.2 kcal/mol.
Take N171D: where the note is “pH 7.5, MOPS-NaOH 30 mM”, the “ddG of mutation (higher = less stable)” value worked out at 2.15 kcal/mol; the unfolding free energy is 1.67 kcal/mol; the Tm came out at 47.1 °C; the “change of melting temperature, mutant” value was -0.6 °C. In addition, the “unfolding enthalpy (van 't Hoff)” value (pH 7.5, MOPS-NaOH 30 mM) came to 47.8 kcal/mol.
Consider T112H, for which, for the setting “pH 4.5, Acetic acid-NaOH 30 mM”, the unfolding free energy is 0.72 kcal/mol, the Tm worked out at 40.2 °C and the “unfolding enthalpy (van 't Hoff)” value was found to be 31.1 kcal/mol. In addition, for the setting “pH 7.6, MOPS-NaOH 30 mM”, the unfolding free energy was determined as 1.2 kcal/mol, the Tm was found to be 42.9 °C and the “unfolding enthalpy (van 't Hoff)” value came out at 41.8 kcal/mol.
V10I: for the setting “pH 7.5, MOPS-NaOH 30 mM”, the “ddG of mutation (higher = less stable)” value was found to be 1.2 kcal/mol; the unfolding free energy stood at 2.63 kcal/mol; the Tm turned out to be 46.2 °C; the “change of melting temperature, mutant” value is -1.5 °C. In addition, under “pH 7.5, MOPS-NaOH 30 mM”, the “unfolding enthalpy (van 't Hoff)” value came to 64.5 kcal/mol.

What is called Tm is the temperature at which the thermal transition is half complete.

The values are drawn from FireProtDB (doi:10.1111/j.1432-1033.1995.tb20713.x).
